Assay [1] deals with T1, Recombinant human CTLA-4-Fc (human, UniProt P16410). The assay is described as follows: SPR.
The target in assay [2] is T1, Recombinant human CTLA-4-Fc. Briefly: ELISA.

T1 sequence (P16410 36-161): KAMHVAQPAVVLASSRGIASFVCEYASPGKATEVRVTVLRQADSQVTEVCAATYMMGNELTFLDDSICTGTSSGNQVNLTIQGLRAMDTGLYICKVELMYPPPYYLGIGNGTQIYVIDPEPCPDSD

B1: XTX100 (antibody, V domains shown)
VH: QVQLVQSGAEVKKPGSSVKVSCKASGYTFTNYFMNWVRQAPGQGLEWMGRVDPEQGRADYAEKFKKRVTITADKSTSTAYMELSSLRSEDTAVYYCARRAMDNYGFAYWGQGTLVTVSS
VL: EIVLTQSPDFQSVTPKEKVTITCSANSALSYMYWYQQKPDQSPKLWVHGTSNLASGVPSRFSGSGSGTDFTLTINSLEAEDAATYYCHHWSNTQWTFGGGTKVEIK
For the molecule B1, the Kd in assay [1] was 91 pM; in assay [2] it was 160 pM.

B2: XTX101+MMP (proteolytically activated XTX101) (antibody, V domains shown)
VH: B1 VH
VL: B1 VL
As for B2, the equilibrium dissociation constant (Kd) in assay [1] was 127 pM; in assay [2], 240 pM.

These data come from publication PMC10729150 (Journal for Immunotherapy of Cancer, 2023).
